In US20160235855A1, “STABLE AQUEOUS PARENTERAL PHARMACEUTICAL COMPOSITIONS OF INSULINOTROPIC PEPTIDES” (SHANGHAI BENEMAE PHARMACEUTICAL CORPORATION, priority 2013, published 2016):

Assay: HPLC analysis of GLP-1 on C18 column (chemical stability)
Type: physicochemical
Description: An investigation method for chemical stability: a test sample was taken, and analyzed on a C18 column (3.5 μm, 300 Å, φ 4.6×50 mm). An analytical method: mobile phase A was 0.1% trifluoroacetic acid, B was the A phase with 80% acetonitrile added therein, the detection wavelength was 280 nm, 60% A and 40% B were balanced for 3 min, and the sample amount was 2 to 5 μL. Elution was performed with linear gradient for 8 min with 40% to 53% of the B phase and 60% to 47% of the A phase. Peak area was calculated using the normalization method. A standard sample was determined with the same method. The peptide concentration in the sample was calculated by comparison with the standard sample, and compared with the determination result at day 0, to calculate the retention of the peptide content in the sample. A higher retention of the peptide content indicated better chemical stability.
The HPLC detection method was performed according to Example 1.
The formulation method and HPLC detection method of the pharmaceutical compositions were performed according to Example 5.

Glucagon-like peptide 1 [GLP-1]
Results of HPLC analysis, retention of the peptide content (pH 3.0, NaCl 0 mg/mL, 35° C., 8 days): 95.46% | Results of HPLC analysis, retention of the peptide content (pH 3.0, NaCl 0 mg/mL, 45° C., 8 days): 87.19% | Results of HPLC analysis, retention of the peptide content (pH 3.0, NaCl 1.17 mg/mL, 35° C., 8 days): 93.69% | Results of HPLC analysis, retention of the peptide content (pH 3.0, NaCl 1.17 mg/mL, 45° C., 8 days): 87.93% | Results of HPLC analysis, retention of the peptide content (pH 3.0, NaCl 8.77 mg/mL, 35° C., 8 days): 95.03% | Results of HPLC analysis, retention of the peptide content (pH 3.0, NaCl 8.77 mg/mL, 45° C., 8 days): 87.86% | Results of HPLC analysis, retention of the peptide content (pH 3.0, NaCl 29.22 mg/mL, 35° C., 8 days): 96.42% | Results of HPLC analysis, retention of the peptide content (pH 3.0, NaCl 29.22 mg/mL, 45° C., 8 days): 91.16% | Results of HPLC analysis, retention of the peptide content (pH 3.5, NaCl 0 mg/mL, 35° C., 8 days): 94.73% | Results of HPLC analysis, retention of the peptide content (pH 3.5, NaCl 0 mg/mL, 45° C., 8 days): 88.66% | Results of HPLC analysis, retention of the peptide content (pH 3.5, NaCl 1.17 mg/mL, 35° C., 8 days): 96.92% | Results of HPLC analysis, retention of the peptide content (pH 3.5, NaCl 1.17 mg/mL, 45° C., 8 days): 92.54% | Results of HPLC analysis, retention of the peptide content (pH 3.5, NaCl 8.77 mg/mL, 35° C., 8 days): 98.06% | Results of HPLC analysis, retention of the peptide content (pH 3.5, NaCl 8.77 mg/mL, 45° C., 8 days): 92.90% | Results of HPLC analysis, retention of the peptide content (pH 3.6, NaCl below 20 mmol/L, 25° C., 30 days): 93.04% | Results of HPLC analysis, retention of the peptide content (pH 3.6, NaCl below 20 mmol/L, 35° C., 30 days): 86.25% | Results of HPLC analysis, retention of the peptide content (pH 3.7, NaCl below 20 mmol/L, 25° C., 30 days): 95.15% | Results of HPLC analysis, retention of the peptide content (pH 3.7, NaCl below 20 mmol/L, 35° C., 30 days): 86.11% | Results of HPLC analysis, retention of the peptide content (pH 3.8, NaCl below 20 mmol/L, 25° C., 30 days): 97.10% | Results of HPLC analysis, retention of the peptide content (pH 3.8, NaCl below 20 mmol/L, 35° C., 30 days): 89.48% | Results of HPLC analysis, retention of the peptide content (pH 3.9, NaCl below 20 mmol/L, 25° C., 30 days): 98.08% | Results of HPLC analysis, retention of the peptide content (pH 3.9, NaCl below 20 mmol/L, 35° C., 30 days): 90.36% | Results of HPLC analysis, retention of the peptide content (pH 4.0, NaCl 0 mg/mL, 35° C., 8 days): 96.07% | Results of HPLC analysis, retention of the peptide content (pH 4.0, NaCl 0 mg/mL, 45° C., 8 days): 92.77% | Results of HPLC analysis, retention of the peptide content (pH 4.0, NaCl 1.17 mg/mL, 35° C., 8 days): 97.43% | Results of HPLC analysis, retention of the peptide content (pH 4.0, NaCl 1.17 mg/mL, 45° C., 8 days): 93.76% | Results of HPLC analysis, retention of the peptide content (pH 4.0, NaCl 8.77 mg/mL, 35° C., 8 days): 98.73% | Results of HPLC analysis, retention of the peptide content (pH 4.0, NaCl 8.77 mg/mL, 45° C., 8 days): Turbid | Results of HPLC analysis, retention of the peptide content (pH 4.0, NaCl below 20 mmol/L, 25° C., 30 days): 97.85% | Results of HPLC analysis, retention of the peptide content (pH 4.0, NaCl below 20 mmol/L, 35° C., 30 days): 91.80% | Results of HPLC analysis, retention of the peptide content (pH 4.1, NaCl below 20 mmol/L, 25° C., 30 days): 98.90% | Results of HPLC analysis, retention of the peptide content (pH 4.1, NaCl below 20 mmol/L, 35° C., 30 days): 91.35% | Results of HPLC analysis, retention of the peptide content (pH 4.2, NaCl below 20 mmol/L, 25° C., 30 days): 98.24% | Results of HPLC analysis, retention of the peptide content (pH 4.2, NaCl below 20 mmol/L, 35° C., 30 days): 93.96% | Results of HPLC analysis, retention of the peptide content (pH 4.5, NaCl 0 mg/mL, 35° C., 8 days): 97.23% | Results of HPLC analysis, retention of the peptide content (pH 4.5, NaCl 0 mg/mL, 45° C., 8 days): 92.45% | Results of HPLC analysis, retention of the peptide content (pH 4.5, NaCl 1.17 mg/mL, 35° C., 8 days): 95.29% | Results of HPLC analysis, retention of the peptide content (pH 4.5, NaCl 1.17 mg/mL, 45° C., 8 days): Turbid | Results of HPLC analysis, retention of the peptide content (pH 4.5, NaCl 8.77 mg/mL, 35° C., 8 days): Turbid | Results of HPLC analysis, retention of the peptide content (pH 4.5, NaCl 8.77 mg/mL, 45° C., 8 days): Turbid | Results of HPLC analysis, retention of the peptide content (pH 7.0, NaCl 0 mg/mL, 35° C., 8 days): 94.30% | Results of HPLC analysis, retention of the peptide content (pH 7.0, NaCl 0 mg/mL, 45° C., 8 days): 88.83% | Results of HPLC analysis, retention of the peptide content (pH 7.0, NaCl 1.17 mg/mL, 35° C., 8 days): 93.35% | Results of HPLC analysis, retention of the peptide content (pH 7.0, NaCl 1.17 mg/mL, 45° C., 8 days): 90.43% | Results of HPLC analysis, retention of the peptide content (pH 7.0, NaCl 8.77 mg/mL, 35° C., 8 days): 94.34% | Results of HPLC analysis, retention of the peptide content (pH 7.0, NaCl 8.77 mg/mL, 45° C., 8 days): 92.79% | Results of HPLC analysis, retention of the peptide content (pH 7.0, NaCl 29.22 mg/mL, 35° C., 8 days): 95.83% | Results of HPLC analysis, retention of the peptide content (pH 7.0, NaCl 29.22 mg/mL, 45° C., 8 days): 95.37% | chemical stability (pH 7.0 to 7.5): poor | Results of HPLC analysis, retention of the peptide content (pH 7.5, NaCl 0 mg/mL, 35° C., 8 days): 90.89% | Results of HPLC analysis, retention of the peptide content (pH 7.5, NaCl 1.17 mg/mL, 35° C., 8 days): 91.88% | Results of HPLC analysis, retention of the peptide content (pH 7.5, NaCl 1.17 mg/mL, 45° C., 8 days): 85.88% | Results of HPLC analysis, retention of the peptide content (pH 7.5, NaCl 8.77 mg/mL, 35° C., 8 days): 92.15% | Results of HPLC analysis, retention of the peptide content (pH 7.5, NaCl 8.77 mg/mL, 45° C., 8 days): 87.48% | Results of HPLC analysis, retention of the peptide content (pH 7.5, NaCl 29.22 mg/mL, 35° C., 8 days): 93.74% | Results of HPLC analysis, retention of the peptide content (pH 7.5, NaCl 29.22 mg/mL, 45° C., 8 days): 88.04% | chemical instability (pH value lower than about 3.5): acid hydrolysis
